The text below walks through data of patent US20260275319A1 (MAX PLANCK GESELLSCHAFT ZUR F RDERUNG DER WISSENSCHAFTEN E V, published 2026).

Experiment [1] deals with T1, MtrG of M. mazei (subunit of the MtrA-MtrH complex), from whole cell extract (Methanosarcina mazei).
T1 sequence (P80656 whole entry, looked up): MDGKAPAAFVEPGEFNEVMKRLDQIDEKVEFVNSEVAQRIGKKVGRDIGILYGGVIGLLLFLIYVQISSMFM
Description: pulldown from M. mazei whole cell extract with HA-tagged Adriase, LC-MS/MS (Experiment 2.3).

For experiment [2], the target named is T2, MtrE of M. mazei (subunit of the MtrA-MtrH complex), from whole cell extract (Methanosarcina mazei).
T2 sequence (P80651 whole entry, looked up): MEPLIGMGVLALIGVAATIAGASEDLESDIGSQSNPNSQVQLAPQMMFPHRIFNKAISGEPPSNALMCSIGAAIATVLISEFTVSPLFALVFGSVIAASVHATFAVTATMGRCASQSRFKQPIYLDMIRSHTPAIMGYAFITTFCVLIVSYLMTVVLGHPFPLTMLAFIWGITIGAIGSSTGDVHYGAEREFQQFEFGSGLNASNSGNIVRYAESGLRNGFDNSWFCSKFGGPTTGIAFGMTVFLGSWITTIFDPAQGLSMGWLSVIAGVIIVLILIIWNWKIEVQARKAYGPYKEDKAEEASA
Described as above.

Experiment [3] has as its target T3, MtrF of M. mazei (subunit of the MtrA-MtrH complex), from whole cell extract (Methanosarcina mazei).
T3 sequence (P80654 whole entry, looked up): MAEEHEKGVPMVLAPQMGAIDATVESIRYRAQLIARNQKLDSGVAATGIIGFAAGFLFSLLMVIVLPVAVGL
The experiment is described as above.

Experiment [4] addresses T4, MtrB of M. mazei (subunit of the MtrA-MtrH complex), from whole cell extract (Methanosarcina mazei).
T4 sequence (P80655 whole entry, looked up): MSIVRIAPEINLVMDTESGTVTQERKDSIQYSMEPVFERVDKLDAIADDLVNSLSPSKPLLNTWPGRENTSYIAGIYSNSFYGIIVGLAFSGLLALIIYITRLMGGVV
The description is as above.

Experiment [5] addresses T5, MtrH of M. mazei (subunit of the MtrA-MtrH complex), from whole cell extract (Methanosarcina mazei).
T5 sequence (P80650 1-316, looked up): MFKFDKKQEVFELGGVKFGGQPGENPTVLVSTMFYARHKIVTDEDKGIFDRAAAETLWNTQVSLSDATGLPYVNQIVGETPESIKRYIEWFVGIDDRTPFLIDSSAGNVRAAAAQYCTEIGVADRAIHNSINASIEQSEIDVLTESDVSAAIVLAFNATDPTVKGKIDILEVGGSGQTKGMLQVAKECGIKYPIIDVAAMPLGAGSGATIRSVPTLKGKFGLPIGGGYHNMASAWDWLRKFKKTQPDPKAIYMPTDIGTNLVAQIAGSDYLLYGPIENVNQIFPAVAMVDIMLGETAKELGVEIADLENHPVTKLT
The description is as above.

The target in experiment [6] is T1, MtrG of M. mazei (subunit of the …). The experiment is described as follows: pulldown from M. mazei whole cell extract with Myc-tagged Adriase, LC-MS/MS (Experiment 2.2).
Experiment [7] concerns the target T2, MtrE of M. mazei (subunit of the …). The description is as above.
The target in experiment [8] is T4, MtrB of M. mazei (subunit of the …). The experiment is described as above.
The target in experiment [9] is T5, MtrH of M. mazei (subunit of the …). Described as above.

B1: M. mazei Adriase with C-terminal HA-tag (enzyme)
chain: TLVIAFIGKNGAVMAGDMREITFEGEKPDREKLEKELYSGSIVTDEEMQKKAEEFGVKITVADCKEKVSERNGVLVGEVSSAEGGVVKKRRLYASAGNFAIAELINTEMTLTSQGKGSNFIAFGNEFTKQVANKCFKDNWTKKSNLQDAVKILILCMETVARKTASVSKQFMIVQTASNADVLKVVEKDRNCGSYPYDVPDYA
notes: also called MM_2909
For the molecule B1, the “Intensity (mass spectrometry)” value amounted to 1.5e+07 arbitrary units in experiment [1]; 3.8e+06 arbitrary units in experiment [2]; 430000 arbitrary units in experiment [3]; 6.2e+06 arbitrary units in [4]; 2e+08 arbitrary units in experiment [5].

B2: M. mazei Adriase with C-terminal Myc-tag (enzyme)
chain: TLVIAFIGKNGAVMAGDMREITFEGEKPDREKLEKELYSGSIVTDEEMQKKAEEFGVKITVADCKEKVSERNGVLVGEVSSAEGGVVKKRRLYASAGNFAIAELINTEMTLTSQGKGSNFIAFGNEFTKQVANKCFKDNWTKKSNLQDAVKILILCMETVARKTASVSKQFMIVQTASNADVLKVVEKDRNCGSEQKLISEEDL
notes: also called MM_2909
As for B2, the “Intensity (mass spectrometry)” value worked out at 1.2e+06 arbitrary units in experiment [6], 2.2e+06 arbitrary units in [7], 3.2e+06 arbitrary units in experiment [8] and 6.5e+07 arbitrary units in experiment [9].
